Measured values reported in PMC5951847, “Substrate sequence selectivity of APOBEC3A implicates intra-DNA interactions”.

Target: A3A(E72A) (Homo sapiens, UniProt P31941 1-199, E72A)
Experiment: fluorescence anisotropy; pH 6.0; 50 mM MES pH 6.0, 100 mM NaCl, 0.5 mM TCEP, room temperature overnight, 10 nM TAMRA-oligo; competition with 300 nM A3A(E72A); pH series: acetate 4.0-5.0, MES 5.5-6.5, HEPES 7.0-8.0, Tris 8.5-9.0
Settings: protein: recombinant; tags: His6-SUMO removed by Ulp1 (untagged); label: 5' TAMRA; hairpin

Sequence of A3A(E72A) (P31941 whole entry E72A): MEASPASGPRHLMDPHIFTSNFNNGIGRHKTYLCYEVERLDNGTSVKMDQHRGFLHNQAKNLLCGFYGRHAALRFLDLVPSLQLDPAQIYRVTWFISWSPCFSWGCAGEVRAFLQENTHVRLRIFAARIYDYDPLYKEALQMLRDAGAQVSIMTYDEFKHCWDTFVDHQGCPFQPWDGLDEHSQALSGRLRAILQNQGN

In the case of GCCATCATTCGATGGG (structured_DNA) [Hairpin-TTC], the Kd is reported as 0.026 ± 0.002 µM.
